According to paper PMC10512346, “Cleavage of α-1,4-glycosidic linkages by the glycosylphosphatidylinositol-anchored α-amylase AgtA decreases the molecular weight of cell wall α-1,3-glucan in Aspergillus oryzae” (Frontiers in Fungal Biology, 2023):

Key:
Test in all cases: purified protein
Type in all cases: biochemical, Aspergillus oryzae
purified protein [1] = substrate: O=[N+]([O-])c1ccc(O[C@H]2O[C@H](CO)[C@@H](O[C@H]3O[C@H](CO)[C@@H](O[C@H]4O[C@H](CO)[C@@H](O[C@H]5O[C@H](CO)[C@@H](O[C@H]6O[C@H](CO)[C@@H](O[C@H]7O[C@H](CO)[C@@H](O[C@H]8O[C@H](CO)[C@@H](O)[C@H](O)[C@H]8O)[C@H](O)[C@H]7O)[C@H](O)[C@H]6O)[C@H](O)[C@H]5O)[C@H](O)[C@H]4O)[C@H](O)[C@H]3O)[C@H](O)[C@H]2O)cc1; conditions: 50 mM sodium acetate pH 5.5, 40°C, apparent value, hydrolysis plus transglycosylation, 1.6–50 mM substrate
purified protein [2] = substrate: O=[N+]([O-])c1ccc(O[C@H]2O[C@H](CO)[C@@H](O[C@H]3O[C@H](CO)[C@@H](O[C@H]4O[C@H](CO)[C@@H](O[C@H]5O[C@H](CO)[C@@H](O[C@H]6O[C@H](CO)[C@@H](O)[C@H](O)[C@H]6O)[C@H](O)[C@H]5O)[C@H](O)[C@H]4O)[C@H](O)[C@H]3O)[C@H](O)[C@H]2O)cc1; conditions: 50 mM sodium acetate pH 5.5, 40°C, apparent value, hydrolysis plus transglycosylation, 1.6–100 mM substrate
purified protein [3] = substrate: O=[N+]([O-])c1ccc(O[C@H]2O[C@H](CO)[C@@H](O[C@H]3O[C@H](CO)[C@@H](O[C@H]4O[C@H](CO)[C@@H](O[C@H]5O[C@H](CO)[C@@H](O[C@H]6O[C@H](CO)[C@@H](O[C@H]7O[C@H](CO)[C@@H](O[C@H]8O[C@H](CO)[C@@H](O[C@H]9O[C@H](CO)[C@@H](O)[C@H](O)[C@H]9O)[C@H](O)[C@H]8O)[C@H](O)[C@H]7O)[C@H](O)[C@H]6O)[C@H](O)[C@H]5O)[C@H](O)[C@H]4O)[C@H](O)[C@H]3O)[C@H](O)[C@H]2O)cc1; conditions: 50 mM sodium acetate pH 5.5, 40°C, apparent value, hydrolysis plus transglycosylation, 1.6–25 mM substrate
purified protein [4] = substrate: O=[N+]([O-])c1ccc(O[C@H]2O[C@H](CO)[C@@H](O[C@H]3O[C@H](CO)[C@@H](O[C@H]4O[C@H](CO)[C@@H](O[C@H]5O[C@H](CO)[C@@H](O[C@H]6O[C@H](CO)[C@@H](O[C@H]7O[C@H](CO)[C@@H](O)[C@H](O)[C@H]7O)[C@H](O)[C@H]6O)[C@H](O)[C@H]5O)[C@H](O)[C@H]4O)[C@H](O)[C@H]3O)[C@H](O)[C@H]2O)cc1; conditions: 50 mM sodium acetate pH 5.5, 40°C, apparent value, hydrolysis plus transglycosylation, 1.6–50 mM substrate

B1: rAoAgtA (Aspergillus oryzae RIB40) (protein)
chain: ATTAEWKSRSVYQTMTDRFARTDGSTTAPCNTTQGLYCGGTWRGTIDKLDYIQGMGFDAVMISPIVENIEGRVSYGEAYHGYWPLDLYSLNSHFGTHQDLLDLSEALHSRGMYLMMDTVINNMAYMTNGKDPAKNIDYSVFTPFNDSSYFHPYCKITDWNNYTNAQLCQTGDDKVALPDLFTEHEDVQQILEKWAKEIISTYSIDGLRIDAAKHVNPGFLKNFGDAIGAFMTGEVLQQEVDTICKYQNNYIGSVPNYPIYYSVLKAFTLGNTTDLANQVEIMKNSCDDVTALASFSENHDVARFASMTDDMALAKNVLTFTILYDGVPMIYQGQEQHLDGPGTPDNREAIWLTKYNTDAELYKLIAKLNTIRKHAYKLDPNYVSLQTYPIFRGGSELGFRKGVEGRQVVMLLSTQGSNSSAYNLTLPVSFNGGVQVMDVLNCVNYTVNPQSELIVPMDKGEPRVFFPTSLMPGSGLCGYTTANVSFVELKTKGAA
notes: residues 24-518 of 549 (signal peptide 1-23 and C-terminal GPI-anchor region removed), C-terminal PGGGS linker and His6 tag; secreted from Pichia pastoris SMD1168H with alpha-factor signal
Km (purified protein [1]): 28.9 mM
Vmax (purified protein [1]): 402 µM/min
kcat (purified protein [1]): 36.7 s⁻¹
kcat/Km (purified protein [1]): 1270 M⁻¹ s⁻¹
Km (purified protein [2]): 61.8 mM
Vmax (purified protein [2]): 659 µM/min
kcat (purified protein [2]): 60 s⁻¹
kcat/Km (purified protein [2]): 970 M⁻¹ s⁻¹
Km (purified protein [3]): 25.1 mM
Vmax (purified protein [3]): 344 µM/min
kcat (purified protein [3]): 31.3 s⁻¹
kcat/Km (purified protein [3]): 1250 M⁻¹ s⁻¹
Km (purified protein [4]): 45.6 mM
Vmax (purified protein [4]): 710 µM/min
kcat (purified protein [4]): 64.6 s⁻¹
kcat/Km (purified protein [4]): 1420 M⁻¹ s⁻¹
